Patent publication US20020081719

What was measured:
[1] = biological target: PPARα/RXR heterodimer (UniProt Q07869+P19793); test: EMSA; conditions: cooperativity ratio; 0.5 mM ZnCl2, 4 C
[2] = biological target: PPARγ/RXR heterodimer (UniProt P37231+P19793); test: EMSA; conditions: 0.5 mM ZnCl2, 4 C
[3] = cooperativity ratio, dimer and tetramer complexes

PPARγ/RXR heterodimer, sequence (P37231 whole entry, chain 1 of 2): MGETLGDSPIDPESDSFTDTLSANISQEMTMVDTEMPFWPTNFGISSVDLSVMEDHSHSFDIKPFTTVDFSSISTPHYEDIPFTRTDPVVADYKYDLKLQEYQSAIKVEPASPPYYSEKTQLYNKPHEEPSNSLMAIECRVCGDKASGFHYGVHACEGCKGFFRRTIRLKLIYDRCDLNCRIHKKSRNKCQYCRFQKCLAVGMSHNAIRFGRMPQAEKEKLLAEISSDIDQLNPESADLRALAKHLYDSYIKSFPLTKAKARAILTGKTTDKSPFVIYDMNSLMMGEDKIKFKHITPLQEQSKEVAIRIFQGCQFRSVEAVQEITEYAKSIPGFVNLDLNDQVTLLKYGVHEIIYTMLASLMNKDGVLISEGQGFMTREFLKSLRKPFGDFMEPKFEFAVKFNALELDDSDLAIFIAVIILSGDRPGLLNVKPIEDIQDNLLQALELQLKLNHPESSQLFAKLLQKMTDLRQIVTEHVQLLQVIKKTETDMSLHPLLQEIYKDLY
PPARγ/RXR heterodimer, sequence (P19793 whole entry, chain 2 of 2): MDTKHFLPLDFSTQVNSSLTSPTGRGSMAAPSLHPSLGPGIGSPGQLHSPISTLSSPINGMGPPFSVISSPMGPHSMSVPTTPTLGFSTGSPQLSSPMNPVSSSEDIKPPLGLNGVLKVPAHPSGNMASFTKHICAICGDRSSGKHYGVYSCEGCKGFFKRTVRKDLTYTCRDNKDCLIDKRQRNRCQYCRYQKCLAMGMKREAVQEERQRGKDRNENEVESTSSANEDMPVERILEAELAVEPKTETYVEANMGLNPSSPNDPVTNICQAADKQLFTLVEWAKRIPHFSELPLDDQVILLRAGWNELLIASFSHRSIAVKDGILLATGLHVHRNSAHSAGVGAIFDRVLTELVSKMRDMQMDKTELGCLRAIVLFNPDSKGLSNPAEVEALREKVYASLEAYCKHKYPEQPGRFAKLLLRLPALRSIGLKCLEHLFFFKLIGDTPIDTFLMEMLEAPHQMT
PPARα/RXR heterodimer, sequence (Q07869 whole entry, chain 1 of 2): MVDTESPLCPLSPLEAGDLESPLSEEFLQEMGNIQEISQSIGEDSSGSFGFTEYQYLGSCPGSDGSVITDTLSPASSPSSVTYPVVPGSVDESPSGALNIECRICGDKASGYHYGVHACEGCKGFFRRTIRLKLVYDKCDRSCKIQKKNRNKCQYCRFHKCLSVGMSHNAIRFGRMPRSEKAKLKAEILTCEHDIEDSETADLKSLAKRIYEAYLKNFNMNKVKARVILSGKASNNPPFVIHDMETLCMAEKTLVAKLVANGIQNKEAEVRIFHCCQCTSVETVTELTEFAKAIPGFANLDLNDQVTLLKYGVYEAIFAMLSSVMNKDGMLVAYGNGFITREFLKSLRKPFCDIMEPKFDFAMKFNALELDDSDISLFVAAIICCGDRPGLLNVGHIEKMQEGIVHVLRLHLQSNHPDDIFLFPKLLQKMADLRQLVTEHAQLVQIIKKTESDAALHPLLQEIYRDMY
PPARα/RXR heterodimer, sequence (P19793 whole entry, chain 2 of 2): as the sequence (P19793 whole entry, chain 2 of 2) above

CAAAACTAGGTCAAAGGTCATGTCTTTAGGCCCAAAACTAGGTCAAAGGTCA (double strand) [(DR1)2 31]
binding signal [1]: 11.6 KdII/KdIV
cooperativity ratio (KdII/KdIV) [2, 3]: 12.6 KdII/KdIV

CAAAACTAGGTCAAAGGTCATCAAAACTAGGTCAAAGGTCA (double strand) [(DR1)2 21]
binding signal [1]: 11.2 KdII/KdIV
cooperativity ratio (KdII/KdIV) ([2]; cooperativity ratio 34 +/- 11, 80% tetrameric): 34 KdII/KdIV

CAAAACTAGGTCAAAGGTCAAAACTAGGTCAAAGGTCA (double strand) [(DR1)2 17]
binding signal [1]: 7 KdII/KdIV
cooperativity ratio (KdII/KdIV) [2, 3]: 9 KdII/KdIV
